Measurements: paper PMC3401468
Where two headings read alike, the source gives them in different places.

Assays:
[1] = molecular target: T1, XPF;ERCC1 (human;human, UniProt Q92889;P07992 12-916;1-297, |); test: SPR
T1 sequence 1: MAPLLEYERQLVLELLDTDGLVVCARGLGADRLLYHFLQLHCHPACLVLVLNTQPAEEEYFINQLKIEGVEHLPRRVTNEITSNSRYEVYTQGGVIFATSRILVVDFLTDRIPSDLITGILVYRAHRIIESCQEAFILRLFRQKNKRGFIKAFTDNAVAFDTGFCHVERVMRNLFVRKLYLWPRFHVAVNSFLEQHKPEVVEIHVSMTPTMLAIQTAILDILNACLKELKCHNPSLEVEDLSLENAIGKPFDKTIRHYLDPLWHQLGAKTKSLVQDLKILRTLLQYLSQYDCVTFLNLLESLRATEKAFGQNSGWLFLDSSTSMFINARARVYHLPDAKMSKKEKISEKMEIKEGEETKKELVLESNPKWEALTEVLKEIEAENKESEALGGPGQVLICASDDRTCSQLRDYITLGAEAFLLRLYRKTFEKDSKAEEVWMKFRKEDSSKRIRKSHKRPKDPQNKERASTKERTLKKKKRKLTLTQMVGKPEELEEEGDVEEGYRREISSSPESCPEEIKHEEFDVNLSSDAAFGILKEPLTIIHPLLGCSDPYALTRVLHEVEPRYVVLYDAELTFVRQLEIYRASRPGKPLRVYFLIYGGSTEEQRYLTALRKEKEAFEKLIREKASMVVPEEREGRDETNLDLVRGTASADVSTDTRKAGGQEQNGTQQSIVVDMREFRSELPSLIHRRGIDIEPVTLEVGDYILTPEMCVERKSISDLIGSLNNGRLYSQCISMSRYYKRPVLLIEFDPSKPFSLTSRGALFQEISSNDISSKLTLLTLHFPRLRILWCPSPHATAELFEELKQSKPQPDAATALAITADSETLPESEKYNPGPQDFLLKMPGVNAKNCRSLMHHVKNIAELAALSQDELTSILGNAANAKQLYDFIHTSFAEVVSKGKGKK
T1 sequence 2: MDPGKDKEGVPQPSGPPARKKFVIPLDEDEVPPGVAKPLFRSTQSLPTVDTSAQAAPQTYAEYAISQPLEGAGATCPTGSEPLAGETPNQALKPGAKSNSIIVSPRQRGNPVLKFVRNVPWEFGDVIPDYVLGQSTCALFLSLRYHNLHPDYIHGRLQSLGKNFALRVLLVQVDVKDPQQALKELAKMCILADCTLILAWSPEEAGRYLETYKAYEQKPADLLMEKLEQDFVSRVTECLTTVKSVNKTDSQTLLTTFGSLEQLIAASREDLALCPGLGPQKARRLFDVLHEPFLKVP

[2] = molecular target: T2, XPF-HLD (human, UniProt Q92889 12-672); test: fluorescence polarization
T2 sequence: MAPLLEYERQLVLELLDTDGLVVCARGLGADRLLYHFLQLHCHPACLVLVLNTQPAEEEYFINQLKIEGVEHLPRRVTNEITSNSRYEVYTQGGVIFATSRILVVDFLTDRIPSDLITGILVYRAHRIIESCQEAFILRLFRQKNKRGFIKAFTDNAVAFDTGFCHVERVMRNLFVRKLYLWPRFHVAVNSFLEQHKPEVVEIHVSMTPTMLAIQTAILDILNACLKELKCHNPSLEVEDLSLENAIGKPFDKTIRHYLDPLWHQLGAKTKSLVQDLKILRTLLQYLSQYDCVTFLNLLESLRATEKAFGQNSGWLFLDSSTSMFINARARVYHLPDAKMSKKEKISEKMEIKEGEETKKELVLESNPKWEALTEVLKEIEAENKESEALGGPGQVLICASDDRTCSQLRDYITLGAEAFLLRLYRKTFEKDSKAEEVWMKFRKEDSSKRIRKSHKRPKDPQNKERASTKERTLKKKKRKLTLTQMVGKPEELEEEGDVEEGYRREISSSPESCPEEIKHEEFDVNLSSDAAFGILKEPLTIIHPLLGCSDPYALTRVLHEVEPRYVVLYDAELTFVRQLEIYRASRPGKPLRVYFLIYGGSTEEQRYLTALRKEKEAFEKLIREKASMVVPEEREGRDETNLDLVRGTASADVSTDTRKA

[3] = molecular target: T2, XPF-HLD; test: fluorescence polarization; remark: listed apart in the source
[4] = molecular target: T2, XPF-HLD; test: fluorescence polarization; remark: listed apart in the source

CAGCGCTCGGTTCCGAGCGCTG (structured_DNA) [Duplex with 2T loop (stem10-loop2), SPR]: no binding [1].

In the case of CAGCGCTCGGTTCCGAGCGCTG (structured_DNA) [2T stem-loop duplex (FP)], the Kd [2] is reported as 0.217 µM.

Binder GCGCTCGGCGTTTTT (ssDNA) [15-mer single strand (FP)] has a Kd [2] of 0.263 µM.

CAGCGCCTGGTTTTTTTTTTTTTTTTTTTTCCAGGCGCTG (structured_DNA) [Stem10-loop20 X=C Y=T] gave a Kd [3] of 0.063 µM.

CAGCGCGGGGTTTTTTTTTTTTTTTTTTTTCCCCGCGCTG (structured_DNA) [Stem10-loop20 X=G Y=G]: binds [4].

CAGCGCTTGGTTTTTTTTTTTTTTTTTTTTCCAAGCGCTG (structured_DNA) [Stem10-loop20 X=T Y=T]: binds [4].
